Measurements published in PMC10090177.

Experiments:
Assay in all cases: cryo-EM structure; purified SGIV virions; icosahedral capsid, block-based reconstruction at 3.5 Å; atomic model of one asymmetric unit
[1] = biological target: Singapore grouper iridovirus major capsid protein VP72 (Singapore grouper iridovirus (SGIV))
[2] = biological target: Singapore grouper iridovirus penton protein VP14 (Singapore grouper iridovirus (SGIV))
[3] = biological target: Singapore grouper iridovirus zip protein VP38 (P1) (Singapore grouper iridovirus (SGIV))

## Singapore grouper iridovirus major capsid protein VP72 (natural protein)
[1]
  stoichiometry N: 3

## Singapore grouper iridovirus penton protein VP14 (natural protein)
[2]
  stoichiometry N: 5

## Singapore grouper iridovirus zip protein VP38 (P1) (natural protein)
[3]
  stoichiometry N: 2
